In patent US20110059060A1:

Molecular target: thuricin CD (Bacillus thuringiensis DPC 6431)

| Substance | antimicrobial activity after enzyme treatment (well diffusion assay, C. difficile ATCC 43593) (% reduction in activity) |
| --- | --- |
| pepsin (enzyme) | 50 |
| trypsin (enzyme) | 20 |
